Values quoted from earlier work as cited in patent US6063755A, “Intestinal trefoil proteins” (The General Hospital Corporation, priority 1995, dated 2000).

Tests used:
[1] = laboratory animal; parenteral as well as oral administration
[2] = laboratory animal; parenteral as well as oral administration; remark: listed apart in the source

B1: PSP: porcine pancreatic peptide, pancreatic spasmolytic peptide; thought to include two trefoils (protein)
chain: EKPAACRCSRQDPKNRVNCGFPGITSDQCFTSGCCFDSQVPGVPWCFKPLPAQESEECVMEV
For B1, the gastric acid secretion [1] is listed as “inhibit” and the gastrointestinal motility [2] is listed as “inhibit”.
